From the nanobody polyreactivity screen of Harvey et al. (2022)

Assay: yeast display, Sf9 membrane polyspecificity reagent, FACS + sequencing; frameworks hold sequencing errors
How it was run: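 Polyreactivity labels are assigned by the sorting gate from which each nanobody was recovered. The gates were low and high (top ~1%), set on anti-HA fluorescence for expression and streptavidin fluorescence for reagent binding. Before sorting, galactose-induced (36–48 hours) yeast display cells were stained for 1 hour at 4 °C with 10% biotinylated, detergent-solubilized Sf9 membrane reagent.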

Row | Sequence | polyreactivity (PSR sort gate)
1 | QVQLVESGGGLVQAGGSLRLSGAASGSIFYSNAMGWSRQAPGKERELVAAITVRGGSTYYADSVKGRFTISRDNAKNTVYLQMNSLKQEDTAVYYCAAEYVSYSSYIYGYLGQGTQVTVSS | high polyreactivity
2 | QVQLVESGGGLVQAGGSLRLSCAASGRTFLFNTMGWYRQAPGKERELVAAITRRGGSTYYADSVKGRFTISRDNAKNTVYLQMNSLKPEDTAVYYCNAPAYSPPGYYWGQGTQVTVSS | low polyreactivity
3 | QVQLVESGGGLVQAGGSLRLSCAASGRIFIYNAMGWYRQAPGKEMELVAAISWSGGSTYYADSVKGRFTISRDNAKNTVYLQMNSLKPEDTAVYYCNARYYGPSWNSYDYWGQGTQVTVSS | high polyreactivity
4 | QVQLVESGGGLVQAGGSLRLSCAASGRIFTGYAMGWYRQAPGKERELVATIRSRGGGTYYADSVKGRFTISRDNAKNTVYLQMNSLKPEDTAVYYCAADDYYYYFGTRYGYWGQGTQVTVSS | low polyreactivity
5 | HVQLVDSGGGLVQAGGSLRLSCAASGYTFKYNTMGWYRQAPGKERDLVAAITRSGGSTYYADSVKGRFTISRDNAKNTVYLQMNSLKPEDTAVYYCAARAAYKQPVSFDYWGQGTQVTVSS | high polyreactivity
6 | QVQLVESGGGLVQAGGSLRLSCAASGFIFSPYDMGWYRQAPGKERELVAAISWRTGSTYYADSVKGRFTISRDNAKNTVYLQMNSLKPEDTAVYYCAARFIWSSYGRYDYWGQGTQVTVSS | high polyreactivity
7 | QVQLVESGGGLVQAGGSLRLSCAASGSIFDIYAMGWYRQAPGKERELVAAISWNGGDTTYADSVKGRFTISRDNEKNTVYLQMNSLKPEYTAVYYCAADLGYWVADYYWGQGTQVTVSS | high polyreactivity
8 | QVQLVESGGGLVQAGGSLRLSCAASGRIFIDYAMGWYRPAPGKERELVATITSSGGSTYYADSVKGRFTISRDNAKNTVYLQMNRLKPEDTAVYYCNKEGSYDYDYWGQGTQVTVSS | low polyreactivity
9 | QVQLVESGGGLVQAGGSLRLSCAASGRIFVGYAMGWYRQAPGKERELVAAITKSGGRTYYADSVKGRFTISRDNAKNTVYLQMNSLKPEDTAVYYCAVLNSKWNEYDYWGQGNQVTVSS | high polyreactivity
10 | QVQLVESGGGLVQAGGSLRLSCAASGRTFGQYTMGWYRQAPGKERELVAGITRSGSRTYYADSVKGRFTISRDNAKNTVYLQMNSLKPEDTAVYYCAARVYKSQGGLPEYDYWGQGTQVTVSS | high polyreactivity
11 | QVQLVESGGGLVQAGGSLRLSCAASGSIFAVYAMGWYRQAPGKERELVASISRTGTTNYADSVKGRFTISRDNAKNTVYLQMNSLKPEDTAVYYCNADAYLYYKYHWGFTFYQYEYWGQGTQVTVSS | low polyreactivity
12 | QVQLVESGGGLVQAGGSLRLSCAASGIIFTYNTMGWYRQAPGKERELVAAINYSGGSTYYADSVKGRFTISRDNAKNTVYLQMNSLKPEDTAVYYCAAPYRRKARGFQQSFDYWGQVTQVTVSS | high polyreactivity
13 | QVQLVEAGGGLVQAGGSLRLSCAPSGFTFGSYARRCYRQAPGKERELVAAIRLSGGSTTYADSVKGRFTITRDNEKKTVYLQMNSLKAEDTAVYYCAARVHVGYYWTFYYWGQGTQVTVSS | high polyreactivity
14 | QVQLVESGGGLVQAGGSLRLSCAASGFIMDYNTMGGYRQAPGKERELVAAISSSGDTTYYAASVKGRFTISRDNAKNSVYLQMNCLKPDDTAVYYCAREYGDGYEYWGQGTQVTVSS | low polyreactivity
15 | QVQLVESGGGLVQAGGSLRLSCAASGSTFFGYAMGWYRQAPGKERELVASITWSSGRTNYADSVKGRFTISRDNAKNTVFLQRYSVKPEETAVYYCAQVLDHQLYIDHWVRIYGYWGQGTQVTVSS | low polyreactivity
16 | QVQLVESGGGLVQAGGSLRLSCAASGRTFYYAMGWYRQAPGKERELVAAISWSGGRTYYADSVKARFTISRDNAKNTVYLQMNSLKPEDTAVYFCAAIYYYSPRDGFIYWGQGTQVTVSS | high polyreactivity
17 | QVQLVESGGGLVQAGGSLRLSCAASGSTFISYAMGWYRQAPGKEREWVAAISRRGDSTYYADSVKGRFTISRDNAKNTVYLQMKSLKPEDTAVYYCAADVSGDKGSIHMNYWGQGTQVTVSS | low polyreactivity
18 | QVQLVESGGGLVQAGGSLRLSCAASGINFYRYAMGWYRQAPGKERELVAAITGSGGNTYYADSVKGRFTISRDNAKNTVYLQMNSLKPEDTAVYYCAKRDYRHQYNYWGQGTQVTVSS | high polyreactivity
19 | QVQLVESGGGLVQAGGSLRLSCAASGSIFSPNAMGWYRQAPGKERELVAAITDSGGSTYYADSVKGRFTISRDNAKNTVYLQMNSLKPEDTAVYYCAVATGLLYKSHGYWGQATQVTVSS | low polyreactivity
20 | QVQLVESGGGLVQAGGSLRLSCAASGSIFRWNSMGGYRQAPGKERELVASITSGGSTYYADSVKGRFTISRDNAKNTVYLQMNSLKPEDTAVYYCAAARYPGRKFDYWGQGTQVTVSS | high polyreactivity
21 | QVQLVESGGGLVQAGGSLRLSCASSGFTFGWYDMGWYRQAPGKERELVASISWSGSSTYYADSVKGRFTISRDNAKNTVYLQLNSLKPEDTAVYYCNAVSVDYVNWYWYDYWGQGTQVTVSS | high polyreactivity
22 | QVQLVESGGGLVQAGGSLRLSCAASGSIFYVYAMGGYRQAPGKERELVAAITSGSSTNYADSVKGRFTISRDNAKNTVYLQMNSLKPEDTAVYYCAASFRDDFPQRLDYWGQGTQVTVSS | low polyreactivity

Row | Sequence | polyreactivity (PSR sort gate)
23 | QVQLVESGGGLVQAGGSLRLSCAASGFTFYYYAMGWYRQAPGKERELVAAISSSGVRTYYADSVKGRFTISRDNAKNTVYLQMKSLKPEDTAVYYCATVGRGFPSVELDYWGQGTQVTVSS | high polyreactivity
24 | QVQLVESGGGLGQAGGSLRLSCAASGSIFGRYTMGWYRQAPGKERELVAAITLRGGSTYYADSVKGRFTISRDNAKNTVYLQMNSLKPEDTAVYYCATDGWKQSAYDYWGQGTQVTVSS | low polyreactivity
25 | QVQLVESGGGLVQAGGSLRLSCAASGITIWWYAMGWYRQAPGKERELLAAITGGGSTNYADSVKGRFTISRDNAKNTVYLQMNSLKPEDTAVYYCAATGSPARNWDTVTGYYYWGQGTQVTVSS | low polyreactivity
26 | QVQLVESGGGLVQAGGSLRLSCAASGSTFTWNDMGRYRQAPGKERELVAGISLSAGSTYYADSVKGRFTISRDNAKNTDYLQMNSLKPEDTAVYYCNADPGGPDTYEEHDYWGQGTQVTVSS | low polyreactivity
27 | QVQLEESGGGLVQAGGSLRLTCAASGSIFDYNAMGWYRQAHGKERELVAAITSGGITYADSVKGRFTISRDNAKNTVYLQMNSLKPEDTAVYYCAALDKLSKYRRYRYGYWGQGTQVTVSS | high polyreactivity
28 | QVQLVESGGGLVQAGGSLRLSCAASGRTFYYYAMGWYRQAPGKEREFVAAITTRGGSTYYADSVKGRFTISRDNAKNTVYLQMNSLKPEDTAVYYCAARSYYQGGYYYWGQGTQVTVSS | high polyreactivity
29 | QVQLVESGGGLVQAGGSLRLSCAPSGSTFVYYAMGWYRPAPGKERELVAAINRSGTRTYYADSVKGRFSISRDNAKNTVYLQMNSLKPEDTAVYYCDKAVQGKYGYWGQGTQVTVSS | high polyreactivity
30 | QVQLVESGGGLVQAGGSLRLICAASGFTFRSYAMGWYRQAPGKERELVAAITSTGGRTYYADSVKGRFTISRDNAKNTVYLQMNSLKPEDTAVYYCAAGRKHYAPVHFGYWGQGTQVTVSS | high polyreactivity
31 | QVQLVESGGGLVQAGGSLRLSCAASGFTFARYAMGWYRQAPGKERELVAAISWSGARTYYADSVKGRFTISRDNAKNTVYLQMNSLKPEDTAVYYCNAVSGSSNFDYWGQGTQVTVSS | high polyreactivity
32 | QDQLEESGGGLVQAGGSLRLSCAASGRMFNSYAMGWYRQAPGKERELVAAISFSGGSTYYADSVKGRFTISRDNAKNTVYLQMNSLKPEDTAVYYCNAVTAVDTAHDYWGQGTQVTVSS | high polyreactivity
33 | QVQLVDSGGGLVQAGGILSLSCASSGRTFYRYAMGWYRQAPGKERELVAAISATGCSTYYADSVKGRFTISRDNEKNTGYFQMNIMKPEDSAVDYCARGGTTLYWGQGTQLTVSS | high polyreactivity
34 | QVQLVESGGGLVQAGGSLRLSCAASGRIILVYAMGWYRQAPGKERELVAAISSGGSTYYADSVKGRLTISRDNAKNTVYLQMNSLKPEDTAVYYCAARTAVGPIRSYWYDYWGQGTQVTVSS | low polyreactivity
35 | QVQLVESGGGLVQAGGSLRLSCAASGFTLFTNAMGWYRQAPWKERELLARISRGGSTKYADSVKGRFTISRDNAKNTVYLQMNSLKREDTAVYSCATGYYGYRYGYWGQGTQVTVSS | high polyreactivity
36 | QVQLVESGGGLVQAGGSLRLSCAASGSNFLCYTMGWYRQAPGKERELVAAISRTGGSTYYADSVKGRFTISRDNAKNTVYLQRNSLKPEDTAVYYCAASLYSITRARYDYWGQGTQVTVSS | high polyreactivity
37 | QVQLVESGGGLVQAGGSLRLSCAASGRIFIFTYALGWYRQAPGKERELVAAITSSGGSTYYADSVKGRFTISRDNAKNTVYLQMNSLKPEDTAVYYCIAYSYYIVHFIRYEYWGQGTQVTVSS | high polyreactivity
38 | QVQLQERGGVLVQAGGSLRLSCAASGTISYAPHMGWYRQATGKERELVAGITIGGTTYYADSVKGRFTISRDNAIHTVYLHMNSLCRGDTAVYFFAAHSEQYTPFYYWGQGTQLTVSS | low polyreactivity
39 | QVQLVESGGGLVQAGGSLRLSCAASGSIFDTYAMGWYRQAPGKERELVAAIRQSGARTYYADSVKGRFTISRDKAKNTVYLQMNSLKPEDTAVYYCAVSYHHYQTWYNYWGQGTQVTVSS | high polyreactivity
40 | QVQLVESGGGLVQAGGSLRLSCAASGRIFYDYAMGWYRQAPGKEWELVAAISGSGGSTYYADSVKGRFTISRDNAKNTVYLQMNSLKPEDTAVYYCNRYTTRYYPGGDYWGQGTQVTVSS | high polyreactivity
41 | QVQLVESGRGLVQAGGSLRLSCAASGSTFFDYAMGWYRQAPGKERELVATISWNGGSTYYADSVKGRFTISRDTATNTVYLQMNSLKPEDTAVYYCAKDRGYRYLGDYWGQGTQVSVSS | low polyreactivity
42 | QVQLVESGGGLVQAGGSLRLSCAGSGRIFTDYTMGWYRQAPGQERELVAAISYSGGSTYYADSVKGRFTISRDNAKNTVYLQMNSLKPEDTAVYYCNKDYYLHEGYGYWGQGTQVTVSS | low polyreactivity
43 | QVQLVESGGGLVQAGGSLRLSCAASGSTFNLYAMGWYRQAHGKERELVADITWSGGSTYYADSVKWRFTISRDNAKKTFYLQMNSLKPEDTAVYYCAAYGLSWGGYDYWGQATQVTVSS | low polyreactivity
